Assay results taken from patent US12214008B2, “Protein interfaces” (SyntheX, Inc., priority 2016, dated 2025).
Residue numbers refer to the chain shown, from its start.

Legend:
Type in all cases: binding
H.sapiens Rad51 = biological target: T1, H.sapiens Rad51 (Homo sapiens, UniProt Q06609); assay: Y2H assay RAD51/SEQ ID NO.: 5 pair; parameters: key: cells having the interaction would survive (+); cells not having the interaction would die (−) on selective media (−ADE, −HIS)
T1 construct: expressed in transfected cells
T1 sequence (Q06609 1-339): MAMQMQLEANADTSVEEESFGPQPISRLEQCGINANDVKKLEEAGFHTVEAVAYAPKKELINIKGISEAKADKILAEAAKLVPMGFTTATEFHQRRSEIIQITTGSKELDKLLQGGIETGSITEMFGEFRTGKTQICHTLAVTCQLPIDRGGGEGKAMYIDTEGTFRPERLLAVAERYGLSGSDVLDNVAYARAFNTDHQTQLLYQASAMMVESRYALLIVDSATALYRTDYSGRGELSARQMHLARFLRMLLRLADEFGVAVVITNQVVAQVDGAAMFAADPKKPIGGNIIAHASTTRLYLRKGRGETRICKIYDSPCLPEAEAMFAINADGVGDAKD
Procedure: (§1) RAD51-binding peptides were tested for ability to bind RAD51 of several different species using a “conventional” Y2H assay, where interaction between the two-hybrid pair drove expression of ADE2 and HIS genes.

C.albicans Rad51 = assay: Y2H assay RAD51/SEQ ID NO.: 5 pair; parameters: key: cells having the interaction would survive (+); cells not having the interaction would die (−) on selective media (−ADE, −HIS)
Procedure: as §1

D.rerio Rad51 = assay: Y2H assay RAD51/SEQ ID NO.: 5 pair; parameters: key: cells having the interaction would survive (+); cells not having the interaction would die (−) on selective media (−ADE, −HIS)
Procedure: as §1

[1] = biological target: T2, Rad51 (S208L; A209E; M210A) (Homo sapiens, UniProt Q06609, A209E/M210A/S208L); assay: Y2H assay, human RAD51 mutants; parameters: key: (+) denotes a successful interaction between the two Y2H baits; (−) denotes a lack of interaction
T2 construct: expressed in transfected cells
T2 sequence (Q06609 1-339 S208L/A209E/M210A): T1 sequence (Q06609 1-339) with S208L, A209E, M210A
Procedure: (§2) The ability of peptides to bind human RAD51 with various mutations was then tested by Y2H assay. […] While mutations affecting BRCA2 binding had no effect on peptide binding, mutations that affected RAD51-AP1 binding did disrupt peptide binding. As these mutations were at residues 202, 205, and 206, they were consistent with the previous fusion data showing binding somewhere in the 190-218 region, and indicated the peptide SEQ ID NO.: 5 contacts at least residues 202, 205, and 206 of RAD51.

Rad51 (A190L; A192L) = biological target: T3, Rad51 (A190L; A192L) (Homo sapiens, UniProt Q06609, A190L/A192L); assay: Y2H assay, human RAD51 mutants; parameters: key: (+) denotes a successful interaction between the two Y2H baits; (−) denotes a lack of interaction
T3 construct: expressed in transfected cells
T3 sequence (Q06609 1-339 A190L/A192L): T1 sequence (Q06609 1-339) with A190L, A192L
Procedure: as §2

Rad51 (F86E; A89E) = biological target: T4, Rad51 (F86E; A89E) (Homo sapiens, UniProt Q06609, A89E/F86E); assay: Y2H assay, human RAD51 mutants; parameters: key: (+) denotes a successful interaction between the two Y2H baits; (−) denotes a lack of interaction
T4 construct: expressed in transfected cells
T4 sequence (Q06609 1-339 F86E/A89E): T1 sequence (Q06609 1-339) with F86E, A89E
Procedure: as §2

[2] = biological target: T5, Rad51 (Q202R, Y205D, Q206A) (Homo sapiens, UniProt Q06609, Q202R/Q206A/Y205D); assay: Y2H assay, human RAD51 mutants; parameters: key: (+) denotes a successful interaction between the two Y2H baits; (−) denotes a lack of interaction
T5 construct: expressed in transfected cells
T5 sequence (Q06609 1-339 Q202R/Y205D/Q206A): T1 sequence (Q06609 1-339) with Q202R, Y205D, Q206A
Procedure: as §2

KRRRRRRRKRLGVRLRVSRML [SEQ ID NO.: 5] was tested, and the “Compound 5 Sequence Binding” value (H.sapiens Rad51) was “+”, the “Compound 5 Sequence Binding” value (C.albicans Rad51) was “+” and the “Compound 5 Sequence Binding” value (D.rerio Rad51) was “+”. The “Y2H interaction with SEQ ID NO.: 5” value [1] was “+”, the “Y2H interaction with SEQ ID NO.: 5” value (Rad51 (A190L; A192L)) was “+” and the “Y2H interaction with SEQ ID NO.: 5” value (Rad51 (F86E; A89E)) was “+”. For the same sequence, the “Y2H interaction with SEQ ID NO.: 5” value [2] was “−”.
